{"source": "a protein production outcome set (Wang et al. 2014)", "experiment": "label from the status in PepcDB records"}
{"sequence": "MTEMQSLRHRLIRQPGPVSGECWIAFFDGVAHPVLIKNAQGQVIFANRAACDLLGRDRSGLAGGAEHELVAGTQAEQIASFDAEAMRRGSVSAEQEMPGPRGVRRFLVSRRPAGEHLVVTFFEITDLRETEGVLRQREAHLRNLLELHPVAPFSFTADGVLSDLSDRLVAITGLPAGTRHVDAWWAAMHPCDRRDLRRAWIRSVRGGQSFDAEHRLQMPDGAYRWFRARIVARPRDQDQRVDRWFGIIEDVHERRTTVEQLRESEARFRAFADDAPVMIWVTDTEGRNVFVSRSWLGATGQSLDEALGTGWIDAVHPDDRDATAAITREAMRRRIAYTNEFRIRRKDGGWCWVIDVGHPRLLADGTFIGYIGCCVDISARRQAEDDRVMAQLQVFHMARHDMLTGLPNRHYFGDCYQEAVASLAPERSVAVLMLDLDGFKTVNDTRGHPVGDQVLCEVANRLRTSVRSTDTVARLGGDEFAVIQTPIRSEQEACDLARRLIAAISKPFDLEGAVPEVGASVGIAFARGHGDSAEEIMRYADVALYAAKQAGRGTFRVFDEATDTHLQSRQKMKAALRAALGLGELSVFYQPLIGLRDGQVTACEALMRWHRKGAGWITPDQFIPLAEEAGLIGDMGDWVLHEACAQAARWPDSVSVAVNLSPLQFHGGALVDQVASALRASGLPPERLQLEITESVLLDPTDRNIGVLQDLRALGAKIVMDDFGTGYSSLGYLRSFPFDKIKVDRSFIRDLPDAREALAILKAVAGLGRSLDMRTTVEGVETQAQLDCAIAEGVDEAQGYFFSRPLPAPGIASFISGCLPKRRIQPATGDAAT", "values": [{"measurement": "protein production", "result": "failed"}]}
{"sequence": "MVYVAVLANIAGNFPALTAALEKIEELKEEGYEIEKYYILGNIVGLFPYPREVIEAIKNLAKTSNVKVIRGKYDQLIAMSDPHAGDPKYIDKLEIPDHLKATLKYTWEKLGHEGREYLRDLPIYLVDKIGKNEIFGVYGSPVNPFDGEILPDQPTSYYEAIMRPVKEYEMLLVASPRYPLDAMTMYGRVVCPGSIGFPPAREHKATFALVDAETLKVKFIEVEYDKKIIEDRIKLEKLPEEVIKILYHGGKA", "values": [{"measurement": "protein production", "result": "not failed"}]}
{"sequence": "MRFAVLGSGSQGNGTLIASGDTFILVDCGFSLRETERRLALLGVSAAQLSAVLVTHEHADHVHGVGLLSRRYNVPVYLSQGTLRGMRKPVEVAGFLACGQSLHIGSLEVTAARVEHDAYEPLQYVVSDGKRRFGMLTDLGSYDALLLERYQGLDALLIEANHCRDLLARGHYPAFLKQRVGGMQGHLNNHQAARLVHELGWNNLQHLVLAHLSSKNNLPHLARQCFVDTLGCDPDWLQVANQEHGLDWREIALEHHHHHH", "values": [{"measurement": "protein production", "result": "not failed"}]}
{"sequence": "MAERINPVVKAVLEWGPIAAFFLGYVKLKDETFTVAGTDYQGFIIVTAAFIPLMVICTGLLWWLSGKLSKMQVATVVLVVVFGGLSVWLNDDRFFKMKPTMIYLLFGVLLGIGLLRGQSWLRLVLEEAIPLQDEGWMILTRRVMAFFFALAIANEAVWRLMSTDAWVNFKTFGLPLAIFVFFMTQSGLFKRYNPERKDEA", "values": [{"measurement": "protein production", "result": "not failed"}]}
{"sequence": "MIGITQAEAVLTIELQRPERRNALNSQLVEELTQAIRKAGDGSARAIVLTGQGTAFCAGADLSGDAFAADYPDRLIELHKAMDASPMPVVGAINGPAIGAGLQLAMQCDLRVVAPDAFFQFPTSKYGLALDNWSIRRLSSLVGHGRARAMLLSAEKLTAEIALHTGMANRIGTLADAQAWAAEIARLAPLAIQHAKRVLNDDGAIEEAWPAHKELFDKAWGSQDVIEAQVARMEKRPPKFQGA", "values": [{"measurement": "protein production", "result": "not failed"}]}
{"sequence": "PLPNPEGLDSDFLAVLSDYPSPDISPPIFRRGEKLRVISDEGGWWKAISLSTGRESYIPGICVARV", "values": [{"measurement": "protein production", "result": "not failed"}]}
{"sequence": "MTEDRLSAEDKKFLEVERALKEAALNPLRHATEELFGDFLKMENITEICYNGNKVVWVLKNNGEWQPFDVRDRKAFSLSRLMHFARCCASFKKKTIDNYENPILSSNLANGERVQIVLSPVTVNDETISISIRIPSKTTYPHSFFEEQGFYNLLDNKEQAISAIKDGIAIGKNVIVCGGTGSGKTTYIKSIMEFIPKEERIISIEDTEEIVFKHHKNYTQLFFGGNITSADCLKSCLRMRPDRIILGELRSSEAYDFYNVLCSGHKGTLTTLHAGSSEEAFIRLANMSSSNSAARNIKFESLIEGFKDLIDMIVHINHHKQCDEFYIKHR", "values": [{"measurement": "protein production", "result": "not failed"}]}
{"sequence": "MATRGSRSEKVKRIFQQFDGNHDGGLNREEMAALVVAVNPRVKFSDEQINAILDEVFRTYAEFIDPNKGLTYDGLLRTYDDGAGDVDRDFDALGLELNADETTIKGSEAASSSSITDERAVEAQKKQRTAAWAVSPNHGIVFDETWKLVDDLEILVKRLKSKQEKDGKLKADNNNNNVDAFSDAGWSRELGPSSEISEKRIYWEESSHDYGVFVKELGVLRSKADGARSREEAFDGHMAIGRVLYEHQLFKEALVSFKRACELQPTDVRPHFKAGNCLYVLGKCKESKDEFLLALEAAESGGNQWAYLLPQIYVNLGIALEGEGMVLSACEYYREAAILCPTHFRALKLLGSALFGVGEYRAAVKALEEAIYLKPDYADAHCDLASSLHSMGEDERAIEVFQRAIDLKPGHVDALYNLGGLYMDLGRFQRASEMYTRVLTVWPNHWRAQLNKAVSLLGAGETEEAKRALKEALKLTNRVELHDAISHLKHLQKKKGKNNGNGNGGEGPFIVVEPSKFKTVGEKTTLRPDLATALQIRAFQRVTRLGKCDVEAVRKEMRDNDVPVSYSGSGGPTKSIRKPNLEEILRRLLSSLKPDTFQGAIKAINEKILALLDDSGSGRVDMGMFYAVIAPLCGGHSDKRKRVAFDALLWRPVNEGSSQITKTDAVKYIKLLRAIYIPSHGMSEMLEVHGEEEAESSVTVTFNQFLAMFDDPDWGFGIMSTILKLEANDRNRHGNQVCSVCRYPVIGSRFKEVKARFSLCNQCYGEGKVPPSFKQEEYKFREYESEAEAMKAKCVCFSMQSHKKAIAT", "values": [{"measurement": "protein production", "result": "failed"}]}
{"sequence": "MEIIAAILVGIVALEHLFIMILEMFFMNSKVAKRAFKLPEHLEGDRNVAIMFANQGLYNGFLAVGLIWGLILGFNSIGYMVQLFFVMCVVVAALFGGFTSNKSIIVKQGLPAILALIALLIVI", "values": [{"measurement": "protein production", "result": "failed"}]}
{"sequence": "HTYKSLFVAPCDAGVKSIKDLKGKSVAFVDPASTSGGLMPTYMVKKETGMMPQQFFGKFTYSGSHDAAELAVKNKTVDAAADNDITYEKMLAKGLITKETNCVVKESDPLPGSPLVYRKDLPAATKKKIRDAILNAH", "values": [{"measurement": "protein production", "result": "failed"}]}
{"sequence": "MFVELNNLLNTTPDRAEQGKLTLLCDAKTDGSFLVHHFLSFYLKANCKVCFVALIQSFSHYSIVGQKLGVSLTMARERGQLVFLEGLKSAVDVVFQAQKEPHPLQFLREANAGNLKPLFEFVREALKPVDSGEARWTYPVLLVDDLSVLLSLGMGAVAVLDFIHYCRATVCWELKGNMVVLVHDSGDAEDEENDILLNGLSHQSHLILRAEGLATGFCRDVHGQLRILWRRPSQPAVHRDQSFTYQYKIQDKSVSFFCQRNVSCCSVT", "values": [{"measurement": "protein production", "result": "not failed"}]}
{"sequence": "MHIHILGICGTFMGGIAAIARNAGHTVTGCDANVYPPMSDQLRALGIELTEGWDAGQVRLEPDAFVVGNVVTRGNPLMEAILERGLPYTSGPQWLADNVLRDKWVLAVAGTHGKTTTSAMLAWILEDARLHPGFLVGGIPQNFGLSARLTDSPFFVIEADEYDTAFFDKRSKFVHYRPRTAILNNLEFDHADIFPDIQAIETQFHHLVRTIPGNGLIVANGREAALDRVLERGLWTPVERFGSIGGWTAGEADASGSFDVHFNSALQGRVRWELIGEHNRMNALAAIAAARHAGVPAAAAIDALSRFENVKRRMEIRGAVHGITVYDDFAHHPTAITTTVQGLRAKVGNARILAVLEPRSNTMKLGVMKDALPASLAGADEVYCYGANLGWDAAEALAPLGEKARVFDNLDKLVAQLVADGRPGDHVLMMSNGGFGGIHAKLLDALHHHYHEEIVLTPMHRYGGYA", "values": [{"measurement": "protein production", "result": "failed"}]}
{"sequence": "MPIKKPCLKLNLDSLNVVRSEIPQMLSANERLKNNFNILYNQIRQYPAYYFKVASNVPTYSDICQSFSVMYQGFQIVNHSGDVFIHACRENPQSKGDFVGDKFHISIAREQVPLAFQILSGLLFSEDSPIDKWKITDMNRVSQQSRVGIGAQFTLYVKSDQECSQYSALLLHKIRQFIMCLESNLLRSKIAPGEYPASDVRPEDWKYVSYRNELRSDRDGSERQEQMLREEPFYRLMIE", "values": [{"measurement": "protein production", "result": "failed"}]}
{"sequence": "MDVFSDRVLLTEESPIRKLVPFAEMAKKRGVRIHHLNIGQPDLKTPEVFFERIYENKPEVVYYSHSAGIWELREAFASYYKRRQRVDVKPENVLVTNGGSEAILFSFAVIANPGDEILVLEPFYANYNAFAKIAGVKLIPVTRRMEEGFAIPQNLESFINERTKGIVLSNPCNPTGVVYGKDEMRYLVEIAERHGLFLIVDEVYSEIVFRGEFASALSIESDKVVVIDSVSKKFSACGARVGCLITRNEELISHAMKLAQGRLAPPLLEQIGSVGLLNLDDSFFDFVRETYRERVETVLKKLEEHGLKRFTKPSGAFYITAELPVEDAEEFARWMLTDFNMDGETTMVAPLRGFYLTPGLGKKEIRIACVLEKDLLSRAIDVLMEGLKMFCSSRISC", "values": [{"measurement": "protein production", "result": "not failed"}]}
{"sequence": "MIGAVIEAGVGITAALISLIEDKQNFLKKYEVSLIILPILVIFFHSMLIVPIYVFSIISGTYLYSKKFYYPFLLLFVSVFLIYIVYGINYPWKSTDIAISAGMIVVMVFDSREKEYVKQNEMNRGTDRKKEIRRDYVQILAGAVIILLIYYYGIDVSRILVTFGSLVLYVTGNFLAGRPDLLLGKLLNSLERSSTKLGIGSLWFASGILIAYSLHDSTAVVMMIVFSIAVGDSLATIIGTSVSSPKLPINRKKSAAGSIAFFAASAAFAIFVLGYAGLFYAAVATITEAVSGFPLDDNLTVPFILSILAYVSKML", "values": [{"measurement": "protein production", "result": "failed"}]}
{"sequence": "MSLSTGATIVIDLGKTLSKVSLWDLDGRMLDRQVRPSIPLEIDGIRRLDAPDTGRWLLDVLSRYADHPVTTIVPVGHGAGIAALTDGRLAFPPLDYEQSIPEAVMADYRSQRDPFARTGSPALPDGLNIGSQLWWLDQLHPDVMANATLLPWAQYWAWFLTGRAVSEVTSLGCHSDLWDPQDGDFSPMAKRLGWAARFAPIVRAGDTVGALLPAIAERTGLSPDVQVLAGLHDSNAALLAARGFAEIADNEATVLSTGTWFIAMRLPATPVDTATLPEARDCLVNVDVHGRPVPSARFMGGREIETLIEIDTRRVDIKPDQPALLAAVPEVLRHGRMILPTLMRGFGPYPHGRFAWINRPEDWFERRAAACLYAALVADTALDLIGSTGRILVEGRFAEADVFVRALASLRPDCAVYTANAHNDVSFGALRLIDPGLRPQGELVRIEPLDTGSWADLDTYRNRWQAEVEAAKVEEGHHHHHH", "values": [{"measurement": "protein production", "result": "not failed"}]}
{"sequence": "MQTQIKVRGYHLDVYQHVNNARYLEFLEEARWDGLENSDSFQWMTAHNIAFVVVNININYRRPAVLSDLLTITSQLQQLNGKSGILSQVITLEPEGQVVADALITFVCIDLKTQKALALEGELREKLEQMVK", "values": [{"measurement": "protein production", "result": "not failed"}]}
{"sequence": "MAEFPASLLILNGKSTDNLPLREAIMLLREEGMTIHVRVTWEKGDAARYVEEARKFGVATVIAGGGDGTINEVSTALIQCEGDDIPALGILPLGTANDFATSVGIPEALDKALKLAIAGDAIAIDMAQVNKQTCFINMATGGFGTRITTETPEKLKAALGSVSYIIHGLMRMDTLQPDRCEIRGENFHWQGDALVIGIGNGRQAGGGQQLCPNALINDGLLQLRIFTGDEILPALVSTLKSDEDNPNIIEGASSWFDIQAPHDITFNLDGEPLSGQNFHIEILPAALRCRLPPDCPLLR", "values": [{"measurement": "protein production", "result": "not failed"}]}
{"sequence": "MQIKEIFMIRCISCLSVVLLHIISMVLMLQAEALADISHTVDSFRTLLMFSTPAFIFISEFLLARSYPDGVPDGFLKKRGKVIFVPFLFIAAIDALLMTSAMGGEVTFLAFVQKYLANVFLGNFIGYFILVIFQFYMLHMMFHEYLKKASPKWVLSISFVVTAAYLGYFSAASPAPASEEGGAFPFFWVPFAGWLFYFCLAYYCGKEYKRFLALLNQYRWVVYGAAIASGALVVTVSYVGEIGMISSKRPDIMLYSTSMIFLCFHLFSKMKHVPKIMMFISNYSFSIYLLHAYFMIIGYVLLLNMPEIPAVPAVLLLFAVCTAGPIMTSWALNKFKYGYLFVGKIYQPKQKKVTVEVRDHAG", "values": [{"measurement": "protein production", "result": "failed"}]}
